Measurements from patent publication US20230165981A1, “[161Tb]-BASED RADIOPEPTIDES” (priority 2021, published 2023).
“And” between values parts separate entries of the source, which are not always exact repeats. Identical values can stand only once. Like-named read-outs stand apart in the source and are kept apart here. Starred links: 1 amine or outer side, 2 acyl side, 3 side chain; linkers in the order of their positions; H or OH if unused. Positions of bridges follow the written chain, without caps; N, C: chain ends. Non-standard residues stand in square brackets, D forms with d. Residues, ends and D or L forms follow the SMILES beside them. *: point of attachment. DOTA = O=C(O)CN1CCN(CC(=O)O)CCN(CC(=O)*)CCN(CC(=O)O)CC1; X1 = NC(=O)Nc1ccc(CC(N[*:1])C(=O)[*:2])cc1; Phe(4-Cl) = N[CH](Cc1ccc(Cl)cc1)C(=O)O

Assays:
AR42J tumor-bearing mice [1] = settings: 0.2 nmol/mouse
Procedure: All applicable international, national, and/or institutional guidelines for the care and use of animals were followed. In particular, all animal experiments were carried out according to the guidelines of Swiss Regulations for Animal Welfare. The preclinical studies were ethically approved by the Cantonal Committee of Animal Experimentation and permitted by the responsible cantonal authorities (license N° 75721 and 79692). Five-week-old female, athymic nude mice (CD-1 Foxn-⅟nu) were obtained from Charles River Laboratories (Sulzfeld, Germany). Mice were subcutaneously inoculated with AR42J tumor cells (5 × 10^6 cells in 100 µL PBS) for SPECT/CT imaging, biodistribution and therapy studies. The SPECT/CT and biodistribution studies were performed 10-14 days after tumor cell inoculation when the tumor size reached a volume of ~250 mm^3.
The mice were sacrificed at 0.5 h, 2 h, 4 h, 24 h and 48 h p.i, selected tissues and organs were collected, weighed, and the accumulated activity was counted using a γ-counter (Perkin Elmer). The decay-corrected data were listed as % IA/g. The data were analyzed for significance using a two-way ANOVA with Tukey’s multiple comparison post-tests. A p-value of <0.05 was considered statistically significant.

AR42J tumor-bearing mice [2] = test: Biodistribution: optimum injected molar amount; settings: 2 h p.i.
[3] = n-octanol/PBS distribution coefficient (logD), shake-flask method; assay type: physicochemical; settings: n-octanol/PBS pH 7.4
Procedure: An aliquot of the radiolabeled peptide (0.5 MBq, 25 µL) was added to a mixture of 1475 µL PBS pH 7.4 and 1500 µL n-octanol. The respective tubes were vortexed for 60 sec and centrifuged for 6 min at 2500 rpm followed by the measurement of the activity concentration in a defined volume of each layer using a γ-counter (Perkin Elmer, Wallac Wizard 1480). The logD values were calculated as the logarithm of the ratio of counts per minute (cpm) measured in the n-octanol phase relative to the cpm measured in the PBS pH 7.4 phase. The experiments were performed three times with five replicates for each radiopeptide and the logD value was expressed as the average ± standard deviation (SD) of the values obtained in each experiment. […] A p value <0.05 was considered statistically significant.

AR42J tumors = test: Preclinical therapy study in AR42J tumor-bearing mice; assay type: in vivo
[4] = Assessment of early side effects in therapy mice; settings: endpoint of therapy
Procedure: Early side effects were assessed based on the RBW of each mouse which was monitored every second day. When an endpoint was reached or at the end of the study (after 49 days), relevant organs and tissues were collected, weighed and put into relation to the brain mass and body weight of the respective mouse. This allowed comparison of organ-to-brain and organ-to-body mass weight ratios. In addition, blood plasma parameters from blood collected immediately after euthanasia were measured.
RBW, organ mass and mass ratios at the endpoint: The RBW was monitored every second day. Mice were euthanized when a predefined endpoint criterion was reached or when the study was terminated at Day 49. RBWs, organ masses, organ mass ratios (kidney-to-brain, liver-to-brain and spleen-to-brain) and organ mass to body weight ratios (kidney-to-body mass, liver-to-body mass and spleen-to-body mass) were analyzed for significance using a one-way ANOVA test with a Tukey’s multiple comparisons post-test. A p-value of <0.05 was considered as statistically significant.
Blood plasma chemistry: Immediately before euthanasia of the mice that reached the endpoint, blood was sampled from the retrobulbar vein. The values of creatinine (CRE), blood urea nitrogen (BUN), alkaline phosphatase (ALP), total bilirubin (TBIL) and albumin (ALB) were determined in the plasma after centrifugation of the blood using a dry chemistry analyzer (DRI-CHEM 4000i, FUJIFILM, Japan). The average blood plasma parameters of each group were analyzed for significance using a one-way ANOVA test with a Tukey’s multiple comparisons post-test. A p-value of <0.05 was considered as statistically significant.

[5] = test system: metastatic functional neuroendocrine neoplasm of the pancreatic tail; test: First-in-man scintigraphy and SPECT/CT; assay type: in vivo, human; settings: 0.5-113 hours p.i., patient
Procedure: A patient with a metastatic functional neuroendocrine neoplasm of the pancreatic tail was injected with 161TbDOTATOC. Scintigraphy and SPECT were recorded. […] FIGS. 18A, 18B, 18C, and 18D show whole-body images obtained at 0.5 hours post-injection (p.i.) (FIG. 18A), 2.5 hours p.i. (FIG. 18B), 20 hours p.i. (FIG. 18C), and 113 hours p.i. (FIG. 18D) of 161Tb-DOTATOC. Early blood-pool activity was noticed in the heart (H) and blood vessels (BV).
FIGS. 19A, 19B, and 19C show SPECT/CT images obtained at 19 hours after injection of 161Tb-DOTATOC. (FIG. 19A) Coronal section, (FIG. 19B) sagittal section, and (FIG. 19C) transverse section.

in vivo = settings: female, athymic nude (CD-1 Foxn-1nu), mouse, iv, 1 nmol/mouse, total radioactivity
Procedure: (§1) Five-week-old female, athymic nude mice (CD-1 Foxn-⅟nu) were obtained from Charles River Laboratories (Sulzfeld, Germany). Mice were subcutaneously inoculated with AR42J tumor cells (5 × 10^6 cells in 100 µL PBS) for SPECT/CT imaging, biodistribution and therapy studies. The SPECT/CT and biodistribution studies were performed 10-14 days after tumor cell inoculation when the tumor size reached a volume of ~250 mm^3.
(§2) The mice were sacrificed at 2 h and 24 h post injection (p.i.). Selected tissues and organs were collected, weighed, and the accumulated activity was counted in a γ-counter. The decay-corrected data were listed as the percentage of the injected activity per gram of tissue mass (% IA/g). The data were analyzed for significance using a two-way ANOVA with Tukey’s multiple comparison post-tests. A p-value of <0.05 was considered statistically significant.

AR42J tumor-bearing mice [6] = settings: 24 h p.i., 1 nmol/mouse
Procedure: as §1, §2

C[C@@H](O)[C@@H]1NC(=O)[C@H](CCCCN)NC(=O)[C@@H](Cc2c[nH]c3ccccc23)NC(=O)[C@H](Cc2ccc(O)cc2)NC(=O)[C@@H](NC(=O)[C@@H](Cc2ccccc2)NC(=O)CN2CCN(CC(=O)O)CCN(CC(=O)O)CCN(CC(=O)O)CC2)CSSC[C@@H](C(=O)N[C@H](CO)[C@@H](C)O)NC1=O [[^161Tb]Tb-DOTATOC] [metal not drawn]
Biodistribution: AR42J Tumor (AR42J tumor-bearing mice [1]; 0.5 h p.i.): 15 ± 2 % IA/g
Biodistribution: AR42J Tumor (AR42J tumor-bearing mice [1]; 2 h p.i.): 14 ± 1 % IA/g
Biodistribution: Adrenals (AR42J tumor-bearing mice [1]; 2 h p.i.): 0.43 ± 0.11 % IA/g
Biodistribution: Femur (AR42J tumor-bearing mice [1]; 2 h p.i.): 0.12 ± 0.03 % IA/g
Biodistribution: Heart (AR42J tumor-bearing mice [1]; 2 h p.i.): ≤0.10 % IA/g
Biodistribution: Intestines (AR42J tumor-bearing mice [1]; 2 h p.i.): 0.24 ± 0.01 % IA/g
Biodistribution: Kidneys (AR42J tumor-bearing mice [1]; 2 h p.i.): 9.4 ± 0.4 % IA/g
Biodistribution: Liver (AR42J tumor-bearing mice [1]; 2 h p.i.): 0.19 ± 0.03 % IA/g
Biodistribution: Lung (AR42J tumor-bearing mice [1]; 2 h p.i.): 0.47 ± 0.05 % IA/g
Biodistribution: Muscle (AR42J tumor-bearing mice [1]; 2 h p.i.): ≤0.10 % IA/g
Biodistribution: Pancreas (AR42J tumor-bearing mice [1]; 2 h p.i.): 1.5 ± 0.2 % IA/g
Biodistribution: Spleen (AR42J tumor-bearing mice [1]; 2 h p.i.): 0.18 ± 0.02 % IA/g
Tu-to-adr (tumor-to-adrenals) (AR42J tumor-bearing mice [2]; 0.040 nmol/mouse): 24 ± 1
Tu-to-blood (AR42J tumor-bearing mice [2]; 0.040 nmol/mouse): 187 ± 12
Tu-to-kidney (AR42J tumor-bearing mice [2]; 0.040 nmol/mouse): 1.8 ± 0.2
Tu-to-liver (AR42J tumor-bearing mice [2]; 0.040 nmol/mouse): 73 ± 3 and 74 ± 3
Tu-to-adr (tumor-to-adrenals) (AR42J tumor-bearing mice [2]; 0.20 nmol/mouse): 34 ± 7
Tu-to-blood (AR42J tumor-bearing mice [2]; 0.20 nmol/mouse): 221 ± 56
Tu-to-kidney (AR42J tumor-bearing mice [2]; 0.20 nmol/mouse): 1.5 ± 0.1
Tu-to-liver (AR42J tumor-bearing mice [2]; 0.20 nmol/mouse): 76 ± 14
Biodistribution: AR42J Tumor (AR42J tumor-bearing mice [2]; 1.0 nmol/mouse): 8.2 ± 0.2 % IA/g
Biodistribution: Adrenals (AR42J tumor-bearing mice [2]; 1.0 nmol/mouse): 0.25 ± 0.06 % IA/g
Biodistribution: Blood (AR42J tumor-bearing mice [2]; 1.0 nmol/mouse): ≤0.10 % IA/g
Biodistribution: Femur (AR42J tumor-bearing mice [2]; 1.0 nmol/mouse): ≤0.10 % IA/g
Biodistribution: Heart (AR42J tumor-bearing mice [2]; 1.0 nmol/mouse): ≤0.10 % IA/g
Biodistribution: Intestines (AR42J tumor-bearing mice [2]; 1.0 nmol/mouse): 0.21 ± 0.13 % IA/g
Biodistribution: Kidneys (AR42J tumor-bearing mice [2]; 1.0 nmol/mouse): 9.9 ± 1.3 % IA/g
Biodistribution: Liver (AR42J tumor-bearing mice [2]; 1.0 nmol/mouse): 0.17 ± 0.01 % IA/g
Biodistribution: Lung (AR42J tumor-bearing mice [2]; 1.0 nmol/mouse): 0.27 ± 0.03 % IA/g
Biodistribution: Muscle (AR42J tumor-bearing mice [2]; 1.0 nmol/mouse): ≤0.10 % IA/g
Biodistribution: Pancreas (AR42J tumor-bearing mice [2]; 1.0 nmol/mouse): 0.71 ± 0.07 % IA/g
Biodistribution: Spleen (AR42J tumor-bearing mice [2]; 1.0 nmol/mouse): 0.11 ± 0.02 % IA/g
Biodistribution: Stomach (AR42J tumor-bearing mice [2]; 1.0 nmol/mouse): 0.74 ± 0.38 % IA/g
LogD [3]: -3.3 ± 0.2
Median survival (AR42J tumors; 2 x 10 MBq, 0.2 nmol): 21 days
tumor growth delay (AR42J tumors; 2 x 10 MBq, 0.2 nmol, Day 0 and 7): 9.0 ± 5.5 days
Time frame of euthanasia (AR42J tumors; 2 x 10 MBq, 0.2 nmol, end of study = 49 days): 20 to 26 days
tumor doubling time (AR42J tumors; regrowth phase): 3.4 ± 3.6 days
ALB (albumin) [4]: 23 ± 2 g/L
ALP (alkaline phosphatase) [4]: 76 ± 21 U/L
BUN (blood urea nitrogen) [4]: 5.8 ± 1.0 mmol/L
CRE (plasma creatinine) [4]: <18 (n=6) µmol/L
TBIL (total bilirubin) [4]: < 3 µmol/L and 4 ± 1 µmol/L
uptake in whole-body scintigraphy [5]: Pathological uptake was demonstrated in the bilobar liver

CC(O)C1NC(=O)C(CCCCN)NC(=O)C(Cc2ccc(NC(N)=O)cc2)NC(=O)C(Cc2ccc(O)cc2)NC(=O)C(NC(=O)C(Cc2ccc(Cl)cc2)NC(=O)CN2CCN(CC(=O)O)CCN(CC(=O)O)CCN(CC(=O)O)CC2)CSSCC(C(=O)NC(Cc2ccc(O)cc2)C(N)=O)NC1=O (centres unmarked) [metal not drawn] ({DOTA}-[Phe(4-Cl)]CY[X1]KTCY-NH2; disulfide 2-7; configuration not given here)
Biodistribution: Muscle (AR42J tumor-bearing mice [1]; 2 h p.i.): ≤0.10 % IA/g
Biodistribution: Spleen (AR42J tumor-bearing mice [1]; 2 h p.i.): 0.41 ± 0.08 % IA/g
ALB (albumin) [4]: 22 ± 1 g/L
ALP (alkaline phosphatase) [4]: 65 ± 15 U/L
BUN (blood urea nitrogen) [4]: 9.1 ± 1.5 mmol/L
CRE (plasma creatinine) [4]: <18 (n=5) 18 (n=1) µmol/L
TBIL (total bilirubin) [4]: <3 (n=5) 3 (n=1) µmol/L
tissue uptake at 2 h (in vivo; femur): 0.2 ± 0.05 %ID/g
tissue uptake at 2 h (in vivo; kidneys): 12 ± 2 %ID/g
tissue uptake at 2 h (in vivo; lung): 1 ± 0.2 %ID/g
tissue uptake at 24 h (in vivo; spleen): 0.13 ± 0.03 %ID/g
Tumor-to-liver (AR42J tumor-bearing mice [6]): 63 ± 18
